{"source": "patent US20150065421A1", "about": "“BASAL INSULIN THERAPY” (SANOFI, priority 2012, published 2015)", "tested_on": "people at high risk for vascular disease with either IFG, IGT, or early type 2 diabetes", "assay": "ORIGIN trial: hypoglycemia, weight change and glargine adherence", "format": "in vivo, human", "source_text": "Participants were asked to self-administer daily subcutaneous saline injections and to check their capillary glucose levels during a 10 day run-in period. Adherent participants were then provided with lifestyle advice and randomly allocated to either insulin glargine (Lantus™) or standard approaches to glycaemic control. Participants allocated to insulin glargine who were also taking a thiazolidinedione stopped that medication at the time of randomization; otherwise the insulin glargine was added to their glycemic regimen. These participants were instructed to inject insulin glargine in the evening, starting at 2, 4 or 6 units (depending on their initial FPG) and to increase the dose at least once per week targeting a self-measured FPG level ≦5.3 mmol/l (95 mg/dl) and ≧4 mmol/l (72 mg/dl). […] If participants developed uncontrolled hyperglycemia, investigators were permitted to add rapid-acting insulin. No other glucose-lowering medication could be added or increased. FPG levels were measured in the local laboratory at every visit and the results were regularly reviewed along with the dose of insulin to ensure that insulin was being effectively trirated. People not diagnosed with diabetes by the time of the penultimate study visit down-titrated insulin glargine by 10 units per day and stopped any metformin that was prescribed.\nOutcomes and other data were collected at scheduled study visits at 0.5, 1, 2, and 4 months after randomization and every 4 months thereafter. Weight, waist and hip circumference were measured annually. HbA1c levels were assayed in local laboratories at every visit for the first year and then annually in people without diabetes and every 4 months for people with diabetes. A first morning urine collection was sent centrally and assayed for creatinine and albumin at baseline, 2 yrs and study end.\nThere were 2 co-primary composite CV outcomes. The first was CV death, non-fatal MI or non-fatal stroke, and the second was a composite of any of these events or a revascularization procedure or hospitalization for heart failure. Secondary outcomes included a composite microvascular outcome comprising a doubling of serum creatinine from baseline, progression of albuminuria category from normoalbuminuria or microalbuminuria to microalbuminuria or overt nephropathy, renal replacement therapy, renal death, retinal photocoagulation or vitrectomy for retinopathy. They also included new type 2 diabetes developing by the time of the 1st post-trial oral glucose tolerance test in participants without baseline diabetes, and all-cause mortality. Other outcomes included incident cancers, CV hospitalizations, and angina. Cardiovascular and cancer outcomes were reviewed by adjudicators masked to treatment allocation. Episodes of hypoglycaemia since the prior visit were recorded at each visit. Symptomatic hypoglycemia was classified as confirmed if a concomitant recorded capillary glucose level was <3 mmol/L (54 mg/dL). Severe hypoglycemia was defined as hypoglycemia that required assistance plus either prompt recovery with glucose or glucagon or a documented capillary glucose ≦2.0 (36 mg/dL). New diabetes was diagnosed if 2 consecutive FPG levels within a 4-month period were ≧7 mM (126 mg/dL) during the trial; a diagnosis of diabetes was made by a physician and a pharmacologic antidiabetic agent was being taken and there was evidence of either a FPG ≧7 mM (126 mg/dL) or any glucose value ≧11.1 mM (200 mg/dL); either 1 or more capillary glucose levels were ≧11.1 mM (200 mg/dl) and a lab-measured FPG was ≧7 mmol/l (126 mg/dl) or a lab measured random glucose level was ≧11.1 mM (200 mg/dl) during down-titration of glargine insulin; or any FPG was ≧7 mM (126 mg/dl) or 2 hour plasma glucose was ≧11.1 mM (200 mg/dl) during the first oral glucose tolerance test."}
{"substance": "(Gly A21) Arg (B31) Arg (B32) human insulin [insulin glargine]", "values": [{"measurement": "more severe hypoglycemia episodes than standard care", "setting": "absolute risk difference", "value": "approximately 0.7 per 100 person-years"}, {"measurement": "more suspected or confirmed hypoglycemia episodes than standard care", "setting": "absolute risk difference", "value": "~11", "unit": "per 100 person-years"}, {"measurement": "annual incidence of severe hypoglycemia", "setting": "basal insulin in ORIGIN", "value": 1.00, "unit": "%"}, {"measurement": "Reason Stopped: N Hyperglycemia (%), Ever Off", "setting": "first time off", "value": "4 (0.15) N (%)"}, {"measurement": "Reason Stopped: N Hypoglycemia (%), Ever Off", "setting": "first time off", "value": "218 (8.2) N (%)"}, {"measurement": "Reason Stopped: N Wt Gain (%), Ever Off", "setting": "first time off", "value": "4 (0.15) N (%)"}, {"measurement": "risk of hypoglycemia relative to standard care participants", "setting": "higher", "value": "approximately 3 fold"}, {"measurement": "Any Symptomatic Hypoglycemia, Mean Number of Episodes/yr", "setting": "in vivo", "value": "2.6 (4.1) Episodes/yr"}, {"measurement": "Any Symptomatic Hypoglycemia, No Episodes During Follow-up (%)", "setting": "in vivo", "value": "2691 (43.0) N (%)"}, {"measurement": "Confirmed Symptomatic Hypoglycemia, Mean Number of Episodes/yr", "setting": "in vivo", "value": "1.3 (2.3) Episodes/yr"}, {"measurement": "No Confirmed Episodes During follow-up (%)", "setting": "in vivo", "value": "3652 (58.3) N (%)"}, {"measurement": "incidence of the first episode of any (confirmed or unconfirmed) hypoglycemia", "setting": "insulin glargine group", "value": 16.73, "unit": "per 100 person-years"}, {"measurement": "mean weight gain", "setting": "insulin glargine group", "value": 1.6, "unit": "kg"}, {"measurement": "participants without any episode of symptomatic hypoglycemia during the entire trial (number)", "setting": "insulin glargine group", "value": 2691, "unit": "participants"}, {"measurement": "incidence of the first episode of nonsevere symptomatic hypoglycemia confirmed by a self-measured glucose level 3 mmol/l (54 mg/dl)", "setting": "insulin glargine group, P<0.001", "value": 9.81, "unit": "per 100 person-years"}, {"measurement": "incidence of the first episode of severe hypoglycemia", "setting": "insulin glargine group, P<0.001 vs standard care", "value": 1.00, "unit": "per 100 person-years"}, {"measurement": "participants without any episode of symptomatic hypoglycemia during the entire trial (percent)", "setting": "insulin glargine group, median 6.2 years", "value": 43, "unit": "%"}, {"measurement": "Reason Stopped: N Hyperglycemia (%), Permanently Off", "setting": "last time off and stayed off", "value": "2 (0.2) N (%)"}, {"measurement": "Reason Stopped: N Hypoglycemia (%), Permanently Off", "setting": "last time off and stayed off", "value": "42 (4.0) N (%)"}, {"measurement": "Reason Stopped: N Wt Gain (%), Permanently Off", "setting": "last time off and stayed off", "value": "4 (0.4) N (%)"}, {"measurement": "Severe Hypoglycemia, Total Episodes During Follow-up", "setting": "median follow-up 6.2 years", "value": 457}, {"measurement": "Any Symptomatic Hypoglycemia, ≧1 Episode (N/100py)", "setting": "nonsevere", "value": "3573 (16.73) N/100py"}, {"measurement": "Confirmed Symptomatic Hypoglycemia, ≧1 Confirmed Episode (N/100py)", "setting": "nonsevere, self-measured glucose ≦3 mmol/l (54 mg/dl)", "value": "2612 (9.81) N/100py"}, {"measurement": "Severe Hypoglycemia, ≧1 Episode (N/100py)", "setting": "participants (rate per 100 person-years), P<0.001 vs standard care", "value": "359 (1.00) N/100py"}, {"measurement": "1 or more nonsevere hypoglycemic episodes confirmed by glucose <3 mmol/l (<54 mg/dl)", "setting": "people with diabetes at enrollment", "value": 10.5, "unit": "per 100 person-years"}, {"measurement": "1 or more nonsevere hypoglycemic episodes confirmed by glucose <3 mmol/l (<54 mg/dl)", "setting": "people without diabetes at enrollment", "value": 5.7, "unit": "per 100 person-years"}]}
